Data published in patent US20250019461A1 (HUMMINGBIRD BIOSCIENCE PTE, published 2025).
Blank lines part the entries; values can stand above or below the binder they belong to.

What was measured:
human HER2 = molecular target: T1, human HER2 (human, UniProt P04626 23-652); assay: ELISA, plate coated with 0.1 µg/ml human HER2, antibody serially diluted
T1 construct: also called human HER2 (Sino Biological)

[1] = molecular target: T2, human HER3 expressed at the cell surface (human, UniProt P21860 20-1342); assay: flow cytometry on HEK293 cells overexpressing human HER3 (HEK293 O/E H3), antibody 20 µg/ml, FITC anti-Fc secondary; same antibody on WT HEK293: 0.60
T2 construct: also called HEK293 HER3 O/E cells; HEK293 cells transfected with vector encoding human HER3

[2] = molecular target: T2, human HER3 expressed at the cell surface; assay: as above; remark: listed apart in the source
human EGFR = molecular target: T3, human EGFR (human, UniProt P00533 25-645); assay: ELISA, plate coated with 0.1 µg/ml human EGFR, antibody serially diluted
T3 construct: also called human HER1 (EGFR) (Sino Biological)

[3] = molecular target: T4, recombinant human HER3 polypeptide (His-tagged) (human, UniProt P21860 20-643, biotinylated in the HER2 (Example 4.1) and EGFR (Example 8.7) dimerisation ELISAs); assay: plate ELISA of the EGFR:HER3 interaction: human EGFR-His coat, HER3-biotin 4 µg/ml and NRG 0.1 µg/ml with titrated antibody, avidin HRP detection; blocked partner EGFR-His
T4 construct: Soluble recombinant human HER3 preparations of the ELISA, BLI and dimerisation assays are gathered here; also called His-tagged human HER3; human HER3 polypeptide (Sino Biological); not shown: His tag

[4] = molecular target: T2, human HER3 expressed at the cell surface; assay: flow cytometry on HEK293 cells overexpressing human HER3 (HEK293 O/E H3), antibody 20 µg/ml, FITC anti-Fc secondary; same antibody on WT HEK293: 1.91
[5] = molecular target: T4, recombinant human HER3 polypeptide …; assay: ELISA, plate coated with human HER3, antibody serially diluted

% Parent (HER3 positive) [1]: 99%
% Parent (HER3 positive) [2]: 99%
B1: anti-HER3 clone 10D1 IgG1 (antibody)
heavy: not shown
light: DIVMTQSQKFMSTSVGDRVSVTCKASQIVGSNVAWYQQKPGQSPKPLIYSASYRYSGVPDRFTASGSGTDFTLTITNVQSEDLAEYFCQQYSSHPLTFGAGTKLELKRTVAAPSVFIFPPSDEQLKSGTASVVCLLNNFYPREAKVQWKVDNALQSGNSQESVTEQDSKDSTYSLSSTLTLSKADYEKHKVYACEVTHQGLSSPVTKSFNRGEC
notes: Human-mouse chimeric IgG1 kappa; also called 10D1P; 10D1 (parental)
binding result (human HER2): no binding (tested: about log -6.7 M (10 µg/ml per paragraph 597))
binding result (human EGFR): no binding (tested: about log -6.7 M (10 µg/ml per paragraph 597))

IC50 [3]: 0.0542 µM
B2: MM-121 (antibody, V domains shown)
VH: EVQLLESGGGLVQPGGSLRLSCAASGFTFSAYNMRWVRQAPGKGLEWVSVIYPSGGATRYADSVKGRFTISRDNSKNTLYLQMNSLRAEDTAVYYCARGYYYYGMDVWGQGTLVTVSS
VL: QSVLTQPPSASGTPGQRVTISCSGSDSNIGRNYIYWYQQFPGTAPKLLIYRNNQRPSGVPDRISGSKSGTSASLAISGLRSEDEAEYHCGTWDDSLSGPVFGGGTKLTVL

% Parent (HER3 positive) [4]: 99.5%
B3: anti-HER3 antibody clone LJM716 (antibody, V domains shown)
VH: EVQLLESGGGLVQPGGSLRLSCAASGFTFSSYAMSWVRQAPGKGLEWVSAINSQGKSTYYADSVKGRFTISRDNSKNTLYLQMNSLRAEDTAVYYCARWGDEGFDIWGQGTLVTVSS
VL: DIQMTQSPSSLSASVGDRVTITCRASQGISNWLAWYQQKPGKAPKLLIYGASSLQSGVPSRFSGSGSGTDFTLTISSLQPEDFATYYCQQYSSFPTTFGQGTKVEIK

EC50 (read off the curve) [5]: ~6 ng/mL
B4: anti-HER3 clone 10D1_c91 IgG1 (antibody, V domains shown)
VH: QVQLQESGPGLVKPSQTLSLTCTVSGYYITSGYSWHWIRQHPGKGLEWIGSIRYSGGTDYNPSLKSLATISADTSKNQFSLKLSSVTAADTAVYYCARMTTAPWYPFDYWGQGTAVTVSS
VL: DIQMTQSPSSVSASVGDRVTITCKASQIVGSNVAWYQQKPGKAPMPLIYSASYGYSGVPSRFSGSGSGTDFTLTISSLQPEDFATYYCQQYSSHPLTFGQGTKLEIKR
notes: Humanised 10D1 variant, IgG1 kappa; also called [18]
